Source: patent publication US20150351390A1, “COMPOSITIONS AND METHODS FOR AUXIN-ANALOG CONJUGATION” (PIONEER HI-BRED INTERNATIONAL, INC., priority 2012, published 2015)

Key:
[1] = LC-MS assay of GH3 conjugation of IAA with Asp or Glu; format: biochemical; conditions: for kcat (hrs−1) IAA-Asp: conjugation of IAA with Asp by recombinant GH3 protein, IAA-Asp product by LC-MS; for kcat (hrs−1) IAA-Glu: conjugation of IAA with Glu by recombinant GH3 protein, IAA-Glu product by LC-MS
Summary of the method: (§1)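 Kinetic parameters come from Michaelis-Menten fits of initial velocities. Velocities reflect LC-MS quantification, against standards, of Asp or Glu conjugates formed by purified GH3 (44 to 164 μg/mL) with 5 mM ATP and MgCl2 at pH 8.0, 30° C.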

[2] = LC-MS assay of GH3 conjugation of 2,4-D with Asp or Glu; format: biochemical; conditions: 5 mM 2,4-D substrate; for kcat (hrs−1) 2,4-D-Asp: conjugation of 2,4-D with Asp by recombinant GH3 protein, 2,4-D-Asp product by LC-MS; for kcat (hrs−1) 2,4-D-Glu: conjugation of 2,4-D with Glu by recombinant GH3 protein, 2,4-D-Glu product by LC-MS
Summary of the method: as §1

B1: AIGH3-3: GH3 protein, accession XP_002880486 (protein, listed as Arabidopsis lyrata)
chain: MTVDLPLRSPMNYSPSDKDVKALRFIEEMIRNVDFVQNKVIREILRRNSETEYLKRFGLKGFTDRKAFKTKVPVVTYDDLKPEIQRIANGDRSMILSSHPITEFLTSSGTSAGERKLMPTIEEDMDRRQLLYSLLMPVMNLYVPGLDKGKALYFLFVKTESKTPGGLPARPVLTSYYKSEQFKRRPYDPYNVYTSPNEAILCPDSSQSMYTQMLCGLLMRHEVLRLGAVFASGLLRAIGFLQTNWKELANDISTGTLSSRISDPAIKESMSKILTKPDQELADFITSVCGQDNNWEGIITKIWPNTKYLDVIVTGAMAQYIPMLEYYSGGLPMACTMYASSESYFGINLKPMCKPSEVSYTIMPNMAYFEFLPHEVPTGKSELVELADVEVGKEYELVITTYAGLNRYRVGDILQVTGFYNSAPQFKFVRRKNVLLSIESDKTDEAELQKAVENASVLLGEQGNRVIEYTSYAETKTIPGHYVIYWELLVKDQTNPPNDEVMARCCLEMEESLNSVYRQSRVADKSIGPLEIRVVKNGTFEELMDYAISRGASINQYKVPRCVSFTPIMELLDSRVVSTHFSPALPHWSPERRC
kcat (hrs−1) IAA-Asp [1]: 3315.262 h⁻¹ | kcat (hrs−1) IAA-Glu [1]: 71.865 h⁻¹ | kcat (hrs−1) 2,4-D-Asp [2]: 1.566 h⁻¹ | kcat (hrs−1) 2,4-D-Glu [2]: 0.172 h⁻¹

B2: AIGH3-4: GH3 protein, accession XP_002886679 (protein, listed as Arabidopsis lyrata)
chain: MAVDSPLQSRIASPTTSEKDMKALMFIEEMTRNPDSVQEKVLGEILSRNSNTEYLKRFDLNGAVDRKTFKSKVPVVMYEDLKTEIQRISNGDRSPILSSHPINEFLTSSGTSSGERKLMPTIEEDIHRRQLLGSLLMPVMNLYLPGLDKGKGLYFLFVKSESKTSGGLPARPALTSYYKSDHFKTSDLQNDYTSPREAILCSDSSQSMYAQMLCGLLMRHEVLRLGAVFPSGLLRAISFLQNNWKELAQDISTGILSSKIFDPAVNNRMSKILNKPDEELAEFLIGVCSQENWEGIITKIWPNTKYLDVIITGAMAQYIPMLEYYSGGLPIASTIYASSESYFGINLNPMCKPSEVSYTIMPNMAYFEFLPHNHDGDGALDETSLVELADVEVGKEYELVITTYAGLYRYRVGDILCVTGFHNSAPQFKFIRRKNVLLSIESDKTDEADLQKAVDNASRLLAEQGTSVIEYTSYAETKTIPGHYVIYWELLGRDQSNALPSDEVMAKCCLEMEESLNSVYRQSRVSDKSIGPLEIRVVQNGTFDELMDYAISRGSSINQYKVPRCVSLTPILELLDSRVVSAHFSTSLPHWSPERRH
kcat (hrs−1) IAA-Asp [1]: 3.013 h⁻¹ | kcat (hrs−1) IAA-Glu [1]: 0.000 h⁻¹ | kcat (hrs−1) 2,4-D-Asp [2]: 0.040 h⁻¹ | kcat (hrs−1) 2,4-D-Glu [2]: 0.006 h⁻¹

B3: AIGH3-5: GH3 protein, accession XP_002869571 (protein, listed as Arabidopsis lyrata)
chain: MPEAPKKVSLEVFDLTLDQKNKQKLQLIEELTSNADQFQRRVLEEILSRNADVEYLRRHYLNGRTDRETFKNVMPVITYEDIQPEINRIANGDKSPILSSKPISEFLTSSGTSGGERKLMPTIEEELDRRSLLYSLLMPVMSQFVPGLENGKGMYFLFIKSESKTPGGLPARPVLTSYYKSSHFKERPYDPYTNYTSPNETILCSDSYQSMYSQMLCGLCQHQEVLRVGAVFASGFIRAIKFLEKHWTELVRDIRTGTLSSLITDPSVREAVSKILKPNSKLAEFVEFECKKSSWQGIITRLWPNTKYVDVIVTGTMSQYIPTLDYYSNGLPLVCTMYASSECYFGVNLRPLCKPSEVSYTLIPSMAYFEFLPVHRNNGVTNSINLPKALTEKEQQELVDLVDVKLGQEYELVVTTYAGLCRYRVGDLLRVTGFKNKAPQFSFICRKNVVLSIDADKTDEVELQNAVKNAVTYLVPFDASLSEYTSYADTSSIPGHYVLFWELCLDGNTPIPPSVFEDCCLTVEESFNTVYRQGRVSDKSIGPLEIKIVEPGTFDKLMDYAISLGASINQYKTPRCVKFAPIIELLNSRVVNSYLSPKCPKWVPGHKQWGSN
kcat (hrs−1) IAA-Asp [1]: 429.073 h⁻¹ | kcat (hrs−1) IAA-Glu [1]: 24.704 h⁻¹ | kcat (hrs−1) 2,4-D-Asp [2]: 1.586 h⁻¹ | kcat (hrs−1) 2,4-D-Glu [2]: 0.421 h⁻¹

B4: OsGH3-13: GH3 protein, accession EAY81150 (protein, listed as Oryza sativa)
chain: MTSTSSENALDHDHDHDASSPAPATATAAALPPMIPACDPHDGPACLELIEVLTTRAAAVQRRVLAEVLAMNTGTDYLRRFLGDEVAAAAGGEDELAAAFKERVPVVEYEDVKPYIERIANGAPSSLISSKPITELLTSSGTSGGQPKLMPATEEELDRKTFLYNLLVPVMNKYVEGLDEGRGMYLLFVKPEITTASGMVARPVLTSYYKSRHFRRRPDSPYTRYTSPDAAILCPDSRQSMYAQLLCGLARRGEVLRVGAVFASAFLRAVKFLEGHWRALCADIRAGRADPAVVTDAACRGAVDAVLAARADPDLADAIAAECGGASWRGIVRRLWPRTKYIDVIVTGSMAQYIPLLEFYGGGLPLVSTMYASSESYFGINLRPLDPPEEVVYTLLPNMCYYEFIKVEKDGDGEKVRDGEVVDLVGVEVGAYYELVVTTFTGLYRYRVGDILQVAGFHNAAPQFRFVHRRNVVLSVDTDKTSEDDLLRAVTAAKPLLDPLSCVLAEYTAYADTSSIPGHYVLFWELTPSPSPPPPPCHDDANDAADIGEDKDKVAHVMAACCAAVEAGLDSVYRRCRSRDRSIGPLEIRVVAPGAFDALMDMCVSHGSSVNQYKTPRCIKHPDAIAVLEQRVVGRFFSDAVPHWEPLKVDGAAAAPATGSDQ
kcat (hrs−1) IAA-Asp [1]: 10.812 h⁻¹ | kcat (hrs−1) IAA-Glu [1]: 494.321 h⁻¹ | kcat (hrs−1) 2,4-D-Asp [2]: 0.639 h⁻¹ | kcat (hrs−1) 2,4-D-Glu [2]: 5.237 h⁻¹

B5: AIGH3-6: GH3 protein, accession XP_002866046 (protein, listed as Arabidopsis lyrata)
chain: MPEAPKIVALEVSDESLAEKNKNKLQFIEDVTTNADDVQRRVLEEILSRNADVEYLKRHGLDGRTDRETFKHVMPVVTYEDIQPEINRIANGDKSQILCSNPISEFLTSSGTSGGERKLMPTIEEELDRRSLLYSLLMPVMNQFVPGLDKGKGMYFLFIKSESKTPGGLPARPVLTSYYKSSHFKNRPFDPYNNYTSPNQTILCSDSYQSMYSQMLCGLCQHKEVLRVGAVFASGFIRAIKFLEKHWSELARDIRTGTLSSEITDLSVREAVGEILKPDPKLADFVESECRKTSWQGIITRLWPNTKYVDVIVTGTMSQYIPTLDYYSNGLPLVCTMYASSECYFGVNLRPLCKPSEVSYTLIPNMAYFEFLPVHRNSGVTSSISLPKALTEKEQQELVDLVDVKLGQEYELVVTTYAGLYRYRVGDVLSVAGFKNNAPQFSFICRKNVALSIDSDKTDEVELQNAVKNAVTHLVPFDASLSEYTSYAETSSIPGHYVLFWELCLNGNTPIPPSVFEDCCLTIEESLNSVYRQGRVSDKSIGPLEIKMVESGTFDKLMDYAISLGASINQYKTPRCVKFAPIIELLNSRVVDSYFSPKCPKWAPGHKQWGSN
kcat (hrs−1) IAA-Asp [1]: 413.293 h⁻¹ | kcat (hrs−1) IAA-Glu [1]: 20.881 h⁻¹ | kcat (hrs−1) 2,4-D-Asp [2]: 1.300 h⁻¹ | kcat (hrs−1) 2,4-D-Glu [2]: 0.211 h⁻¹
